# B1: CODA217: engineered chimeric LGIC receptor, W77F in SEQ ID NO: 33 (protein)
# chain: MRCSPGGVWLALAASLLHVSLQGEFQRKLYKELVKNYNPLERPVANDSQPLTVYFSLSLLQIMDVDEKNQVLTTNIFLQMSWTDHYLQWNVSEYPGVKTVRFPDGQIWKPDILLYNSADERFDATFHTNVLVNSSGHCQYLPPGIFKSSCPMDLKNFPMDVQTCKLKFGSWSYGGWSLDLQMQEADISGYIPNGEWDLVGIPGKRSERFYECCKEPYPDVTFTVTMRRRMGYYLIQMYIPSLLIVILSWISFWINMDAAPARVGLGITTVLTMTTQSSGSRASLPKVSYVKAIDIWMAVCLLFVFSALLEYAAVNFVSRQHKELLRFRRKRRHHKSPMLNLFQEDEAGEGRFNFSAYGMGPACLQAKDGISVKGANNSNTTNPPPAPSKSPEEMRKLFIQRAKKIDKISRIGFPMAFLIFNMFYWIIYKIVRREDVHNQ
# modifications: synthetic sequence of chimeric LGIC
# Tested on: Lenti-X 293T cells
# Assay: YFP fluorescence quenching anion reporter plate reader assay of engineered receptors stimulated with acetylcholine or a non-native ligand
# Format: cell-based
# How it was run: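 Lenti-X 293T cells carrying a YFP anion reporter were transiently transfected with channel DNA and assayed the next day in HEPES-buffered ECS at pH 7.2. Ligand (acetylcholine or non-native ligand) was added in NaI-substituted ECS. Percent quench was the mean of the last 10 s relative to the 15 s pre-addition baseline.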
molecule,measurement,setting,value
B1,YFP fluorescence quenching using CNL001,"1 nM CNL001, first column",−22.273%
same,YFP fluorescence quenching using CNL001,"1 nM CNL001, second column",−19.415%
same,YFP fluorescence quenching using TC-5619/Bradanicline,3 nM brd,−12.1%
same,YFP fluorescence quenching using Varenicline,"3 nM var, first column",5.662
same,YFP fluorescence quenching using Varenicline,"3 nM var, second column",7.57
same,YFP fluorescence quenching using CNL001,"10 nM CNL001, first column",−9.563%
same,YFP fluorescence quenching using CNL001,"10 nM CNL001, second column",6.398%
same,YFP fluorescence quenching using TC-5619/Bradanicline,30 nM brd,−14.72%
same,YFP fluorescence quenching using Facinicline,30 nM fac,−10.14
same,YFP fluorescence quenching using Varenicline,"30 nM var, first column",13.968
same,YFP fluorescence quenching using Varenicline,"30 nM var, second column",19.079
same,YFP fluorescence quenching using CNL001,"50 nM CNL001, first column",61.938%
same,YFP fluorescence quenching using CNL001,"50 nM CNL001, second column",66.837%
same,YFP fluorescence quenching using ABT-126,50 nM abt,37.81%
same,YFP fluorescence quenching using CNL001,"100 nM CNL001, first column",79.791%
same,YFP fluorescence quenching using CNL001,"100 nM CNL001, second column",80.908%
same,YFP fluorescence quenching using CNL002,100 nM CNL002,67.81%
same,YFP fluorescence quenching using ABT-126,100 nM abt,57.31%
same,YFP fluorescence quenching using AZD-0328,100 nM azd0328,−7.57%
same,YFP fluorescence quenching using ABT-126,300 nM abt,12.61%
same,YFP fluorescence quenching using AZD-0328,300 nM azd0328,7.08%
same,YFP fluorescence quenching using TC-5619/Bradanicline,300 nM brd,−6.3%
same,YFP fluorescence quenching using Facinicline,300 nM fac,68.29
same,YFP fluorescence quenching using Varenicline,"300 nM var, first column",16.183
same,YFP fluorescence quenching using Varenicline,"300 nM var, second column",18.025
same,YFP fluorescence quenching using Varenicline,"500 nM var, first column",23.366
same,YFP fluorescence quenching using Varenicline,"500 nM var, second column",19.206
same,YFP fluorescence quenching using CNL001,"1 uM CNL001, first column",83.444%
same,YFP fluorescence quenching using CNL001,"1 uM CNL001, second column",83.905%
same,YFP fluorescence quenching using CNL002,1 uM CNL002,69.42%
same,YFP fluorescence quenching using ABT-126,1 uM abt,66.05%
same,YFP fluorescence quenching using TC-6987,1 uM tc6987,−10.35
same,YFP fluorescence quenching using Varenicline,"1 uM var, first column",34.69
same,YFP fluorescence quenching using Varenicline,"1 uM var, second column",30.504
same,YFP fluorescence quenching using TC-6987,10 uM tc6987,−13.93
same,YFP fluorescence quenching using CNL002,30 uM CNL002,73.64%
same,YFP fluorescence quenching using AZD-0328,30 uM azd0328,81.59%
same,YFP fluorescence quenching using Facinicline,30 uM fac,87.35
same,YFP fluorescence quenching using TC-6987,500 uM tc6987,−7.54
same,"percent quench of YFP fluorescence, 10 uM ach",acetylcholine 10 uM,−5.86%
same,"percent quench of YFP fluorescence, 100 uM ach",acetylcholine 100 uM,70.06%
same,"percent quench of YFP fluorescence, 1 mM ach",acetylcholine 1 mM,68.71%
same,"percent quench of YFP fluorescence, 3 mM ach",acetylcholine 3 mM,73.45%
